Laboratory results from US20100291638.

Columns and labels:
[1] = test system: T1, DNA polymerase 3173 (uncultured hot spring virus (Octopus Spring)); conditions: dNTP incorporation, 60 C, 2 mM MgSO4; background <100 cpm
T1 sequence: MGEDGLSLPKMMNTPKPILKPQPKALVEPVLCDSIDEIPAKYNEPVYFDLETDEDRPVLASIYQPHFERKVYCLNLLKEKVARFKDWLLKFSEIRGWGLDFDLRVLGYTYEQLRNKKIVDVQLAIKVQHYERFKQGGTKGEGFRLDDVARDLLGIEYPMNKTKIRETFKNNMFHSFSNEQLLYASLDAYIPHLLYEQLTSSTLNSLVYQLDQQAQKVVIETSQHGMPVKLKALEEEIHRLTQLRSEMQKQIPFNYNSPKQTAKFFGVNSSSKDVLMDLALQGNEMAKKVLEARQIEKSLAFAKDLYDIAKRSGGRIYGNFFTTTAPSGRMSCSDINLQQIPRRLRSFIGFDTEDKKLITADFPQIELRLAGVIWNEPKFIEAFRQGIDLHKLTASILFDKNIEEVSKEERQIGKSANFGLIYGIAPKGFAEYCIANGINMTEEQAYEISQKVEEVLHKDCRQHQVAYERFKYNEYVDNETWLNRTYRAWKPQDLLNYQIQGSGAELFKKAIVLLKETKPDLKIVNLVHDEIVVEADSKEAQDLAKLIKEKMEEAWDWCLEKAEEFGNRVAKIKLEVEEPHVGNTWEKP

[2] = test system: T2, DNA polymerase clone 2783GBS (uncultured hot spring virus (Great Boiling Spring)); conditions: dNTP incorporation; background <500
T2 sequence: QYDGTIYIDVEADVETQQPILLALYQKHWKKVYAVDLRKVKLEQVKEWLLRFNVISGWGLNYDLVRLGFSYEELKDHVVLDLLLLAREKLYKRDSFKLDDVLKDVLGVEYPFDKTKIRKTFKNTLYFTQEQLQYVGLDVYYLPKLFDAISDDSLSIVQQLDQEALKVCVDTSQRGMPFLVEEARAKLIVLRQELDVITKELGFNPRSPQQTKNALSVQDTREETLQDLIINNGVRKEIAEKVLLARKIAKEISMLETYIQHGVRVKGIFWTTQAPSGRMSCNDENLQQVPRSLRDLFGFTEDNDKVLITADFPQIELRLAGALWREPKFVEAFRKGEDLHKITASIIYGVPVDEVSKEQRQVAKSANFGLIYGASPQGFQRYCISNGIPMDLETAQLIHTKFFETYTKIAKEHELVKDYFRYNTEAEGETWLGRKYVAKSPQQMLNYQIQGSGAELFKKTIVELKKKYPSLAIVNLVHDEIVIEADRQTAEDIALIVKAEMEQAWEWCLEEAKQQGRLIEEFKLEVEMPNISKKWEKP

[3] = test system: T3, DNA polymerase clone 74 (uncultured hot spring virus (Great Boiling Spring)); conditions: dNTP incorporation; background <500
T3 sequence: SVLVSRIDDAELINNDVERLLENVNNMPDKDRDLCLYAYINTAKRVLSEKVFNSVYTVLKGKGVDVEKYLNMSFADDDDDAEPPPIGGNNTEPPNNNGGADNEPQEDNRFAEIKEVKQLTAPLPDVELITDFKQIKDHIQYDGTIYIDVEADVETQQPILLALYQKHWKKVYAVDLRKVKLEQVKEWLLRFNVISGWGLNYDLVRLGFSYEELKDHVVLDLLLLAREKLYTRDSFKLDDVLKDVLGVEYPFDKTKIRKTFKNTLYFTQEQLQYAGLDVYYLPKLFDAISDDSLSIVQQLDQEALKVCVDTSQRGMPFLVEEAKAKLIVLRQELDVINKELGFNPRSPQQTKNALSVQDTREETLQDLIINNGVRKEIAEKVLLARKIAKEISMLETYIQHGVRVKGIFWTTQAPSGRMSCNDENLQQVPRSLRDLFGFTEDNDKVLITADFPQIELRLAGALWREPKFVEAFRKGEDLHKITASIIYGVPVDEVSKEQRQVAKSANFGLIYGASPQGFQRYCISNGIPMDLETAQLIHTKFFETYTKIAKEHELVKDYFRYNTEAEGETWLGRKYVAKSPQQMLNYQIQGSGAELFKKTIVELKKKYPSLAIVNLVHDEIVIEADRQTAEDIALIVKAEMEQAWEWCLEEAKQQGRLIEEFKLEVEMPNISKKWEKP

[4] = test system: T4, DNA polymerase clone 347 (uncultured hot spring virus (Great Boiling Spring)); conditions: dNTP incorporation; background <500
T4 sequence: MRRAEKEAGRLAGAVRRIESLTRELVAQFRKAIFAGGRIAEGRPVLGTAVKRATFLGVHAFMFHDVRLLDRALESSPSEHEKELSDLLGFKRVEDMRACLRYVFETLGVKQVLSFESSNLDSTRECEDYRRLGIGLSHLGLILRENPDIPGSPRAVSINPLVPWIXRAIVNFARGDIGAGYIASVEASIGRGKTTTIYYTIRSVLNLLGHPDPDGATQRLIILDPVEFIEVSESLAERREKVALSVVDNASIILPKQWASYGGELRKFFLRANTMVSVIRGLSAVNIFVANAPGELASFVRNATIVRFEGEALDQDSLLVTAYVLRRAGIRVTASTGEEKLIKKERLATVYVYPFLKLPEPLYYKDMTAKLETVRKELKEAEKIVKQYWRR

## activated calf thymus DNA
[1]
  activity: > 1000 cpm
[2]
  activity: 11500 cpm
[3]
  activity: 47400 cpm
[4]
  activity: 18700 cpm
